Laboratory results as given in patent US20210355204A1.

Assays:
TGFβ2 (human) [1] = target: TGFβ2 (human) (UniProt P61812); assay: cell-based or functional assay
TGFβ1 (human) [2] = target: TGFβ1 (human) (UniProt P01137); assay: cell-based or functional assay
TGFβ3 (human) [3] = target: TGFβ3 (human) (UniProt P10600); assay: cell-based or functional assay
TGFβ2 (human) [4] = target: TGFβ2 (human) (UniProt P61812); assay: SPR (Biacore A100), BM-1 captured on anti-mouse Fc CM5 chip, TGFβ injected
TGFβ1 (human) [5] = target: TGFβ1 (human) (UniProt P01137); assay: as above
TGFβ3 (human) [6] = target: TGFβ3 (human) (UniProt P10600); assay: as above
TGFβ2 (human) [7] = target: TGFβ2 (human) (UniProt P61812); assay: SPR (Biacore 2000), TGFβ immobilised on CM1 chip, antibody injected
TGFβ1 (human) [8] = target: TGFβ1 (human) (UniProt P01137); assay: as above
TGFβ3 (human) [9] = target: TGFβ3 (human) (UniProt P10600); assay: as above

Sequence of TGFβ1 (human) (P01137 279-390 limits assumed): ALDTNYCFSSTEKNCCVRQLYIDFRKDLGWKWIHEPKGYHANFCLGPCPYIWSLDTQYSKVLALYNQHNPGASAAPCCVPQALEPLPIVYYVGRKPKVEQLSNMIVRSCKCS
Sequence of TGFβ2 (human) (P61812 303-414 limits assumed): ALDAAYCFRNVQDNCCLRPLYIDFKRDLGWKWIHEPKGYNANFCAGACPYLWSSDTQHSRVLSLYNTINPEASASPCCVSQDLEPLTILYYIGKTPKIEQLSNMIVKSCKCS
Sequence of TGFβ3 (human) (P10600 301-412 limits assumed): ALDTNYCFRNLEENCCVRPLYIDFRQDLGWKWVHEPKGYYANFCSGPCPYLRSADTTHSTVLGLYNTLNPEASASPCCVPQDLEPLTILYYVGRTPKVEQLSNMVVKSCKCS

IL-11 Release Assay - IC50 (A549 cells) (TGFβ2 (human) [1]): 0.498 µg/mL
HT-2 cell neutralization assay, IC50 (TGFβ1 (human) [2]): 220
IL-11 Release Assay - IC50 (A549 cells) (TGFβ1 (human) [2]): 0.292 µg/mL
HT-2 cell neutralization assay, IC50 (TGFβ3 (human) [3]): 196
IL-11 Release Assay - IC50 (A549 cells) (TGFβ3 (human) [3]): 0.012 µg/mL
Kd (TGFβ2 (human) [4]): 170 pM
koff (TGFβ2 (human) [4]): 0.002 s⁻¹
kon (TGFβ2 (human) [4]): 1.1e+07 M⁻¹ s⁻¹
Kd (TGFβ1 (human) [5]): 72 pM
koff (TGFβ1 (human) [5]): 0.0014 s⁻¹
kon (TGFβ1 (human) [5]): 1.9e+07 M⁻¹ s⁻¹
Kd (TGFβ3 (human) [6]): 48 pM
koff (TGFβ3 (human) [6]): 0.00031 s⁻¹
kon (TGFβ3 (human) [6]): 6.5e+06 M⁻¹ s⁻¹
Kd (TGFβ2 (human) [7]): 977 pM
koff (TGFβ2 (human) [7]): 0.00684 s⁻¹
kon (TGFβ2 (human) [7]): 7e+06 M⁻¹ s⁻¹
Kd (TGFβ1 (human) [8]): 304 pM
koff (TGFβ1 (human) [8]): 0.0039 s⁻¹
kon (TGFβ1 (human) [8]): 1.28e+07 M⁻¹ s⁻¹
Kd (TGFβ3 (human) [9]): 188 pM
koff (TGFβ3 (human) [9]): 0.000946 s⁻¹
kon (TGFβ3 (human) [9]): 5.05e+06 M⁻¹ s⁻¹
B1: BM-1 (1D11, R&D Systems MAB1835) (antibody, from another filing, V domains shown)
VH: QVQLQQSGPELVRPGASVKLSCKASGYIFITYWMNWVKQRPGQGLEWIGQIFPASGSTNYNEMFEGKATLTVDTSSSTAYMQLSSLTSEDSAVYYCARGDGNYALDAMDYWGQGTSVTVSS
VL: DIVLTQSPASLAVSLGQRATISCRASESVDSYGNSFMHWYQQKSGQPPKLLIYLASNLESGVPARFSGSGSRTDFTLTIDPVEADDAATYYCQQNNEDPLTFGAGTKLEIK
